Assay results reported in PMC7241714, “Structure-function investigation of 3-methylaspartate ammonia lyase reveals substrate molecular determinants for the deamination reaction” (PLoS ONE, 2020).
Read-outs that look alike come from different tables or passages of the source.

Key:
[1] = target: T1, 3-methylaspartate ammonia lyase (CaMAL) (Citrobacter amalonaticus, UniProt O66145); experiment: steady-state inhibition kinetics of 3-methylaspartate deamination (UV assay); type: biochemical
T1 construct: C-terminal His-tag

[2] = substrate: C[C@H](C(=O)O)[C@H](N)C(=O)O; experiment: purified protein; type: biochemical, Carboxydothermus hydrogenoformans; conditions: Mg2+; pH 9.0; 30.0 °C
[3] = substrate: C[C@H](C(=O)O)[C@H](N)C(=O)O; experiment: purified protein; type: biochemical, Clostridium tetanomorphum; conditions: Mg2+; pH 9.0; 30.0 °C
[4] = substrate: N[C@@H](CC(=O)O)C(=O)O; experiment: purified protein; type: biochemical, Clostridium tetanomorphum; conditions: Mg2+; pH 9.0; 30.0 °C
[5] = substrate: C[C@H](C(=O)O)[C@H](N)C(=O)O; experiment: purified protein; type: biochemical, Citrobacter amalonaticus; conditions: Mg2+ catalytic pocket; pH 9.0; 30.0 °C

## NCCC[C@H](N)CC(=O)O [β-lysine]
[1]
  Ki: 1.7 ± 0.4 mM

## NC(CC(=O)O)CC(=O)O [β-glutamic acid]
[1]; read-out: Ki
  Ki: 71 ± 3 mM

B1: 3-methylaspartate ammonia lyase (ChMAL) (Carboxydothermus hydrogenoformans Z-2901) (protein)
chain: MRIKDVLFVKGSSGFYFDDQKAIKSGAVTDGFTYKGKPLTPGFSRVRQGGEAVSIMLFLENGEIAVGDCVAVQYSGVDGRDPVFLADNFIEVLEEEIKPRLVGYNLVRFREAARYFTNLTDKRGKRYHTALRYGLTQALLDAVAKINRTTMAEVIAEEYGLDLTLNPVPLFAQSGDDRYINADKMILKRVDVLPHGLFNHPAKTGEEGKNLTEYALWLKQRIKTLGDHDYLPVFHFDVYGTLGTVFNDNLDRIADYLARLEEKVAPHPLQIEGPVDLGSKERQIEGLKYLQEKLITLGSKVIIVADEWCNNLSDIKEFVDAGAGGMVQIKSPDLGGVNDIIEAVLYAKEKGTGAYLGGSCNETDVSAKITVHVGLATGPAQLLVKPGMGVDEGLTIMRNEMMRTLAILQRNKVTFQKKVG
notes: C-terminal His-tag
[2]
  Km: 1.38 ± 0.17 mM
  kcat: 66 ± 2 s⁻¹

B2: 3-methylaspartate ammonia lyase (CtMAL) (Clostridium tetanomorphum) (protein)
chain: MKIVDVLCTPGLTGFYFDDQRAIKKGAGHDGFTYTGSTVTEGFTQVRQKGESISVLLVLEDGQVAHGDCAAVQYSGAGGRDPLFLAKDFIPVIEKEIAPKLIGREITNFKPMAEEFDKMTVNGNRLHTAIRYGITQAILDAVAKTRKVTMAEVIRDEYNPGAEINAVPVFAQSGDDRYDNVDKMIIKEADVLPHALINNVEEKLGLKGEKLLEYVKWLRDRIIKLRVREDYAPIFHIDVYGTIGAAFDVDIKAMADYIQTLAEAAKPFHLRIEGPMDVEDRQKQMEAMRDLRAELDGRGVDAELVADEWCNTVEDVKFFTDNKAGHMVQIKTPDLGGVNNIADAIMYCKANGMGAYCGGTCNETNRSAEVTTNIGMACGARQVLAKPGMGVDEGMMIVKNEMNRVLALVGRRK
notes: C-terminal His-tag
[3]
  Km: 3.99 ± 0.61 mM
  kcat: 7.6 ± 0.4 s⁻¹
[4]
  Km: 67 ± 6 mM
  kcat: 1.6 ± 0.1 s⁻¹

B3: 3-methylaspartate ammonia lyase (CaMAL) (Citrobacter amalonaticus) (protein)
chain: MKIKQALFTAGYSSFYFDDQQAIKNGAGHDGFIYTGDPVTPGFTSVRQAGECVSVQLILENGAVAVGDCAAVQYSGAGGRDPLFLAEHFIPFLNDHIKPLLEGRDVDAFLPNARFFDKLRIDGNLLHTAVRYGLSQALLDATALASGRLKTEVVCDEWQLPCVPEAIPLFGQSGDDRYIAVDKMILKGVDVLPHALINNVEEKLGFKGEKLREYVRWLSDRILSLRSSPRYHPTLHIDVYGTIGLIFDMDPVRCAEYIASLEKEAQGLPLYIEGPVDAGNKPDQIRMLTAITKELTRLGSGVKIVADEWCNTYQDIVDFTDAGSCHMVQIKTPDLGGIHNIVDAVLYCNKHGMEAYQGGTCNETEISARTCVHVALAARPMRMLIKPGMGFDEGLNIVFNEMNRTIALLQTKD
notes: C-terminal His-tag
[5]
  Km: 1.00 ± 0.06 mM
  kcat: 17.6 ± 0.3 s⁻¹
